Several values for one entry are separate records, joined by “and”; a condition that tells them apart may be missing. Equal entries are not always repeated.
Target: M. tuberculosis Lsr2 R86A mutant protein (M. tuberculosis)
Test: cross-linking

M. tuberculosis Lsr2 R86A mutant protein (natural protein)
stoichiometry N: 2 and 4

— publication PMC2367712
